This is an account of results in paper PMC11239505.

In this experiment the target is Gαi (in HEK cells only expressing Gαs and Gαi, GloSensor assay).

The substance “parapinopsin from the Japanese lamprey Lethenteron camtschaticum (LcPPO) (receptor)” returned a GloSensor assay: decrease of the forskolin-stimulated cAMP bioluminescence signal after a 2-s 365-nm light pulse, HEK cells only expressing Gαs and Gαi of 63%.

On to “trafficking-enhanced eOPN3 derived from Anopheles stephensi (AsOPN3) (receptor)”, for which the GloSensor assay: decrease of the forskolin-stimulated cAMP bioluminescence signal after a 2-s 365-nm light pulse, HEK cells only expressing Gαs and Gαi amounted to 62%.
